# From IntAct's records for PubMed 12615979
# B1: Serine/threonine-protein kinase plo1 (Schizosaccharomyces pombe (strain ATCC 38366 / 972)), P50528 (parent)
# chain: MASVAIKEPKTAITPKKKSKASRLCFTPPTNLHNNKKNIFYTRYDCIGEGGFARCFRVKDNYGNIYAAKVIAKRSLQNDKTKLKLFGEIKVHQSMSHPNIVGFIDCFEDSTNIYLILELCEHKSLMELLRKRKQLTEPEVRYLMMQILGALKYMHKKRVIHRDLKLGNIMLDESNNVKIGDFGLAALLMDDEERKMTICGTPNYIAPEILFNSKEGHSFEVDLWSAGVVMYALLIGKPPFQDKEVKTIYRKIKANSYSFPSNVDISAEAKDLISSLLTHDPSIRPSIDDIVDHEFFHTGYMASTLPDEILHSMPIWPSSQSKSSFQRNLDFVASASGVGFGNSAGVEKNKPYALRTDEVDNDRILPSVLSPRDRVNPVMKIGPETKPVPSKLSTALHAARKSTDGSLGSRVKVLREESQSFVPTKSAVTEQVEPIQLIRSLSANTVSRLSKVGNMKSDIWISVKKTALKIGMALEAHTHALTSEDADSEPVLFITKWVDYSNKYGLGYQLSDESVGVHFNDDTSLLFSADEEVVEYALHPKDTEIKPYIYPASKVPESIRSKLQLLKHFKSYMGQNLSKAVQDESFEKPKNSTSNTMLFMQHYLRTRQAIMFRLSNGIFQFNFLDHRKVVISSTARKIIVLDKERERVELPLQEASAFSEDLRSRLKYIRETLESWASKMEVS
# partner: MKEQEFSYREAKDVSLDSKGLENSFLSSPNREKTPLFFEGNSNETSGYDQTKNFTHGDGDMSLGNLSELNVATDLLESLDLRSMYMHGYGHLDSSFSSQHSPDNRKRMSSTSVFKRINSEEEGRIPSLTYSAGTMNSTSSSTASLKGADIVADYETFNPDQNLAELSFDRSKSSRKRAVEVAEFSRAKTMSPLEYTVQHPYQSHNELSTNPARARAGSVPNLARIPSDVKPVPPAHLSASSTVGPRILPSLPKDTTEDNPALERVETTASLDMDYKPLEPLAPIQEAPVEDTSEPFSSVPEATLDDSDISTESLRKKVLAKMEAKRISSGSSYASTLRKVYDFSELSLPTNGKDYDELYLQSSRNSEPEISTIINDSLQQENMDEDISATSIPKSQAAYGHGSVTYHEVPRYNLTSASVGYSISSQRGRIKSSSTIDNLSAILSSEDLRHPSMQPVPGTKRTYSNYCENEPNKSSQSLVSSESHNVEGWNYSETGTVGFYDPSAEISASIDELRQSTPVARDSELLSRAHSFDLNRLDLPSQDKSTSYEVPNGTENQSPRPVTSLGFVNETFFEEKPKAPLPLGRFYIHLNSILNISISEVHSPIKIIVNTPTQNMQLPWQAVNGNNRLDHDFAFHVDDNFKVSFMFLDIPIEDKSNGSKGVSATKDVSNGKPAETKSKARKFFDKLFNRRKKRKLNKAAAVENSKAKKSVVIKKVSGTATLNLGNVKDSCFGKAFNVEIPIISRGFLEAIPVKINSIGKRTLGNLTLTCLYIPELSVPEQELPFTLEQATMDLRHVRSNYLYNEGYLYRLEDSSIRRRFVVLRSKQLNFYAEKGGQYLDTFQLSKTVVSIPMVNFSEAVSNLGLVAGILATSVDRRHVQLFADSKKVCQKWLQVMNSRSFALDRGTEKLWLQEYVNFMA
# B2: Serine/threonine-protein kinase plo1 (Schizosaccharomyces pombe (strain ATCC 38366 / 972)), P50528 (parent)
# chain: B1 chain
# partner: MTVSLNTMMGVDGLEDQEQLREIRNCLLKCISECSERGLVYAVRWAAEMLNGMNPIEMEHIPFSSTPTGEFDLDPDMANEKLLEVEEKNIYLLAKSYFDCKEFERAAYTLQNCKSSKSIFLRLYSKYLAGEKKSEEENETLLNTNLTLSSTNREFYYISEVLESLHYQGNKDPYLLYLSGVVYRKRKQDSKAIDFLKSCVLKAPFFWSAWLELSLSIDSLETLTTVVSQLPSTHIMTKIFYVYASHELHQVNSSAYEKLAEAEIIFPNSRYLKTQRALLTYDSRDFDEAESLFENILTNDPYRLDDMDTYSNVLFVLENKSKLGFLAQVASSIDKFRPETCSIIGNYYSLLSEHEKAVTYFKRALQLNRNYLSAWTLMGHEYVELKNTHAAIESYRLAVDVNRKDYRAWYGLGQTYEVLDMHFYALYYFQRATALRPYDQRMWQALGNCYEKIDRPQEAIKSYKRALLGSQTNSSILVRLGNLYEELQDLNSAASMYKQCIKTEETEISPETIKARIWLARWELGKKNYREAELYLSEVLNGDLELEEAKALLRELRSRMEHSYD
# B3: Serine/threonine-protein kinase plo1 (Schizosaccharomyces pombe (strain ATCC 38366 / 972)), P50528 (parent)
# chain: B1 chain
# partner: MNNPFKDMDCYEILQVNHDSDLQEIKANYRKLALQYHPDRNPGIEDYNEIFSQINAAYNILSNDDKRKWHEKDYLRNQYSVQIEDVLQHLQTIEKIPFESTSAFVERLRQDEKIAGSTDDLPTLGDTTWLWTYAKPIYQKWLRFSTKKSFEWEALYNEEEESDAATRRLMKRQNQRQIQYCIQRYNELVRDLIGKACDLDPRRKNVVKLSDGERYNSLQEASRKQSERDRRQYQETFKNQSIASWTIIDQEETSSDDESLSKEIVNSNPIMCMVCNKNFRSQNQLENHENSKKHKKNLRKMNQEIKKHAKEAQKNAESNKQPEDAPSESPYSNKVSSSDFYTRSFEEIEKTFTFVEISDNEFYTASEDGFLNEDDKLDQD
# B4: Serine/threonine-protein kinase plo1 (Schizosaccharomyces pombe (strain ATCC 38366 / 972)), P50528 (parent)
# chain: B1 chain
# partner: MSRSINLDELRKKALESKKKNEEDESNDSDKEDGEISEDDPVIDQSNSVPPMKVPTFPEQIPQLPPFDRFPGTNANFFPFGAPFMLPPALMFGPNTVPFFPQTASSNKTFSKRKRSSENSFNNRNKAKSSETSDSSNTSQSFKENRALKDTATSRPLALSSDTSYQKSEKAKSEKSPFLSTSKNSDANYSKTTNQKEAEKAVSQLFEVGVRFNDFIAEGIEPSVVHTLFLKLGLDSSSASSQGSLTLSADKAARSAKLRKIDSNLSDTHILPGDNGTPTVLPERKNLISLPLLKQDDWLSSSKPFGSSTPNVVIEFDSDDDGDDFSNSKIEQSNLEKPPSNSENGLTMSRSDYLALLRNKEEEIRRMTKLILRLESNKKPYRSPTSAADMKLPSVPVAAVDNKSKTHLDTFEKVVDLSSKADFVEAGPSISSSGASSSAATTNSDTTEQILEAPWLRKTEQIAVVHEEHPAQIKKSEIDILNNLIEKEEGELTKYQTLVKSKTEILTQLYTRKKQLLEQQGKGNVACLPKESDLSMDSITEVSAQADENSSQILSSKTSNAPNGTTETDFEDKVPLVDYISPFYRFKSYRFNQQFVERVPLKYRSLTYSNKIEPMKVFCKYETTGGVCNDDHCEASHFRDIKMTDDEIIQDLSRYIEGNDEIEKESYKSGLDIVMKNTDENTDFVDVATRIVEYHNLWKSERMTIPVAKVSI
# Variants of: B1
# Conditions: with bud4_schpo mid1, P78953
row,effect of a mutation on the interaction,Variant
1,decreasing interaction,V533A
2,decreasing interaction,V498A

# Variants of: B2
# Conditions: with apc8_schpo cut23, O94556
row,effect of a mutation on the interaction,Variant
1,decreasing interaction,R605P
2,decreasing interaction,V533A
3,decreasing interaction,L565F
4,decreasing interaction,F493L

# Variants of: B3
# Conditions: with epr1_schpo epr1, O14213
row,effect of a mutation on the interaction,Variant
1,disrupting interaction,S256P
2,disrupting interaction,F493L
3,disrupting interaction,K251E
4,disrupting interaction,I252T
5,decreasing interaction,V533A
6,decreasing interaction,V498A

# Variants of: B4
# Conditions: with red1_schpo red1, Q9UTR8
row,effect of a mutation on the interaction,Variant
1,decreasing interaction,V498A
